Among the data in PMC8360603 are in vitro ubiquitylation of T4L-SAMHD1-CtD by CRL4^DCAF1-CtD (UBA1, UBCH5C, ubiquitin, ATP) with HisSUMO-T4L-Vprmus (1-92), 0-15 min, SDS-PAGE; loss of the unmodified band values, retold here.

The experiment has as its target DDB1/DCAF1 C-terminal domain complex (UniProt Q16531).
Chain of UniProt Q16531 (Q16531 whole entry, chain 1 of 2, the tested form may be a part): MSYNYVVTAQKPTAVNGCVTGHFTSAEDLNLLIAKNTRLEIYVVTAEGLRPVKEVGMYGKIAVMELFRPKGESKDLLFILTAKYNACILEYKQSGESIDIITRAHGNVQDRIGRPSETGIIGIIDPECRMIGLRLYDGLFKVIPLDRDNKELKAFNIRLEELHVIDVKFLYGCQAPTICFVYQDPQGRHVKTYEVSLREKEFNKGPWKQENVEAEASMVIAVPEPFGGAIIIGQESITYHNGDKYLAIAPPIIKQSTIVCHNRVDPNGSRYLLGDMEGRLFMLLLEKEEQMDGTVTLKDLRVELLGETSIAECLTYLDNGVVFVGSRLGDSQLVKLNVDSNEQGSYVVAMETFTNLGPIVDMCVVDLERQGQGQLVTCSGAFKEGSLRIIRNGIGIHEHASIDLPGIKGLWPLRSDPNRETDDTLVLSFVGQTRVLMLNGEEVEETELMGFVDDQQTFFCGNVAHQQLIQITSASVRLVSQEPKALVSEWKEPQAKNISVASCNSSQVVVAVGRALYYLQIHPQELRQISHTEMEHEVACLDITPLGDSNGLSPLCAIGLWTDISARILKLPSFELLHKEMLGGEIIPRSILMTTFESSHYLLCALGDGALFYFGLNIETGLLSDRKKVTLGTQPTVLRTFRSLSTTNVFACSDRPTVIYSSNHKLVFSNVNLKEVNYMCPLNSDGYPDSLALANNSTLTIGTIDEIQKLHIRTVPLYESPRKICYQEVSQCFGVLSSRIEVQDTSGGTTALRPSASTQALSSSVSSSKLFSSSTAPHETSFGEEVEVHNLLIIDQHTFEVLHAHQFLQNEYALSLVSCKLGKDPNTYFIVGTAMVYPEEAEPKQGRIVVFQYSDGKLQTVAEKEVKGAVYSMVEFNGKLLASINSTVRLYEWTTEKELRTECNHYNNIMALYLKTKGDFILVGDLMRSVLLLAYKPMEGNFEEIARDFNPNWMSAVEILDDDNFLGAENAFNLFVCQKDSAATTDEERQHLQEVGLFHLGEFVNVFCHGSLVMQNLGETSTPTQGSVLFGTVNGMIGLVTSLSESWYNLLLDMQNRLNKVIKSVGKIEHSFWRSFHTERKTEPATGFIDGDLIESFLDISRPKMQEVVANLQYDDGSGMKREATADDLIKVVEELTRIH
Chain of UniProt Q16531 (Q9Y4B6 1046-1396, chain 2 of 2, further chain): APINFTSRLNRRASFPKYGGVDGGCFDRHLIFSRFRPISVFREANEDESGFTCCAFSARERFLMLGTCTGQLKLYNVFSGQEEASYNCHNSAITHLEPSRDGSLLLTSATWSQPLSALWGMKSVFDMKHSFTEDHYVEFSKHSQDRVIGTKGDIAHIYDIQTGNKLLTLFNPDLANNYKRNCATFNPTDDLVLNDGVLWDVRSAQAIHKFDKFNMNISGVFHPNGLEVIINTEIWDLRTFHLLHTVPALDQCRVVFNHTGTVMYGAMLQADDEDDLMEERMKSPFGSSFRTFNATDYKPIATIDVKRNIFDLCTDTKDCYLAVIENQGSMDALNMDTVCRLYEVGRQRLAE

As for T4L-SAMHD1-CtD (domain or fragment), the in vitro ubiquitylation of T4L-SAMHD1-CtD by CRL4^DCAF1-CtD (UBA1, UBCH5C, ubiquitin, ATP) with HisSUMO-T4L-Vprmus (1-92), 0-15 min, SDS-PAGE; loss of the unmodified band is greater than 90%.
